Measured values from US20230125788, “TDP-43 MODULATING AGENTS AND USES THEREOF” (Washington University, published 2023).

T1: TDP-43 RRM1-2 (UniProt Q13148 Q13148:102-269)
T1 chain: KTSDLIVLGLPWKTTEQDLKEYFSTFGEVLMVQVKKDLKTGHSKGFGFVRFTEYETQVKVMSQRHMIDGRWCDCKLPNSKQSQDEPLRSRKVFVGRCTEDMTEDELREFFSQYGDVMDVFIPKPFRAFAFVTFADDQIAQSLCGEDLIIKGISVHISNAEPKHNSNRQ

T2: TDP-43 deltaN (UniProt Q13148 Q13148:102-414)
T2 chain: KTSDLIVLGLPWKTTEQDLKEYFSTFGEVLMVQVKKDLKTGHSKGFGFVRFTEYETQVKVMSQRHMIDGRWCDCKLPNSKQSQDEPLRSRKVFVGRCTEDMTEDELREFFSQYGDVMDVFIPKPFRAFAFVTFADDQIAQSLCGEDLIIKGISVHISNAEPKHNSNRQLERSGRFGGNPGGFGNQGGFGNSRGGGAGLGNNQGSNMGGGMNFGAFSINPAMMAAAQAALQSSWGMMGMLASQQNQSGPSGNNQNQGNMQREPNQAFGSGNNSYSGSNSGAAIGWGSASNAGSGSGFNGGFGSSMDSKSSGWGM


Tests used:
TDP-43 WT [1] = biological target: T3, TDP-43 WT (UniProt Q13148 Q13148:1-414); assay: FP; Kd dramatically lower than unmodified; values only in figure; details: tags: N-terminal His6-SUMO (Smt3), E. coli BL21(DE3), pET28b(+)-SUMO-TDP43
TDP-43 WT [2] = biological target: T3, TDP-43 WT; assay: EMSA; at least three TDP-43 bound per oligo; 150 mM NaCl, 2 mM MgCl2, Tris pH 8; details: tags: N-terminal His6-SUMO (Smt3), E. coli BL21(DE3), pET28b(+)-SUMO-TDP43; label: 5' 700 nm IR dye
TDP-43 WT [3] = biological target: T3, TDP-43 WT; assay: FP; higher Kd than modified; values only in figure; details: tags: N-terminal His6-SUMO (Smt3), E. coli BL21(DE3), pET28b(+)-SUMO-TDP43
TDP-43 WT [4] = biological target: T3, TDP-43 WT; assay: FP; apparent; 300 mM NaCl, 10 mM Tris pH 8.0; details: tags: N-terminal His6-SUMO (Smt3), E. coli BL21(DE3), pET28b(+)-SUMO-TDP43; label: FITC
Procedure: Each point is the average of >3 technical and 3 biological replicates, respectively (SEM).
Recombinant TDP-43 wild-type (WT) and constructs previously purified were serially diluted in a 1:2 ratio (from 75 to 0 nM) into a 300 mM of NaCl, 10 mM of Tris (pH 8.0), 5% glycerol, 5% sucrose, 1 mM of TCEP buffer solution. A(GU)₆ RNA labeled with fluorescein isothiocyanate (FITC) from IDT was used at a final concentration of 0.6, 1.3, 2.5, and 5 nM. […] The anisotropy measurements were performed in a Biotek SYNERGY Neo2 (BioSPX) plate reader with excitation and emission wavelengths of 480 and 520 nm, respectively. To assess the binding curves, the data were fitted as previously described. Data analysis was performed using GraphPad Prism 5.

TDP-43 RRM1-2 = biological target: T1, TDP-43 RRM1-2; assay: FP; apparent; 300 mM NaCl; details: tags: N-terminal His6-SUMO; label: FITC
TDP-43 deltaN = biological target: T2, TDP-43 deltaN; assay: FP; apparent; 300 mM NaCl; details: tags: N-terminal His6-SUMO; label: FITC

T3 sequence (Q13148 whole entry, one chain of several): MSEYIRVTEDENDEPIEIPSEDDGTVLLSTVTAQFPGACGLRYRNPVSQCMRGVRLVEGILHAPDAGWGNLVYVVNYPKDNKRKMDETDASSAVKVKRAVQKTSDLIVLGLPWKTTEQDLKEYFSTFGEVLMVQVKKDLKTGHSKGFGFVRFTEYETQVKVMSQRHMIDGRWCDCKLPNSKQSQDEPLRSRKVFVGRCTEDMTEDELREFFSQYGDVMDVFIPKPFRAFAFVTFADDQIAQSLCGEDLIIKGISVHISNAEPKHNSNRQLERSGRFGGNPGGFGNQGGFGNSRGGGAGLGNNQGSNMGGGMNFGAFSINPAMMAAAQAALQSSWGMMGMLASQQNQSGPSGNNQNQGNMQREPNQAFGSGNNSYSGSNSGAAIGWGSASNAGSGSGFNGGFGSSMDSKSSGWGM

| Binder | binding result (TDP-43 WT [1]) | binding result (TDP-43 WT [3]) | also measured |
| --- | --- | --- | --- |
| GAGAGAGCGCGTGCAGAGACTTGGTGGTGCATAA (XNA, 2'-OMe all; PS all linkages) [CLIP34 2OMe] | binds |  |  |
| GAGAGAGCGCGUGCAGAGACUUGGUGGUGCAUAA (ssRNA) [CLIP34 IR700] |  |  | binding result (TDP-43 WT [2]): binds |
| GAGAGAGCGCGUGCAGAGACUUGGUGGUGCAUAA (ssRNA) [CLIP34 unmodified] |  | binds |  |
| AGUGUGUGUGUGU (ssRNA, 2'-OMe and PS unless otherwise noted (general statement)) [A(GU)6-FITC] |  |  | Kd (TDP-43 WT [4]): 0.8 nM; Kd (TDP-43 RRM1-2): 0.8 nM; Kd (TDP-43 deltaN): 0.7 nM |
| AGUGUGUGUGUGU (ssRNA) [A(GU)6 unmodified] |  | binds |  |
| AGTGTGTGTGTGT (XNA, 2'-OMe all; PS all linkages) [A(GU)6 2OMe] | binds |  |  |
